# Target: NK1 receptor (human) (UniProt P25103)
# Test: cell-based or functional assay
# NK1 receptor (human), sequence (P25103 87-407): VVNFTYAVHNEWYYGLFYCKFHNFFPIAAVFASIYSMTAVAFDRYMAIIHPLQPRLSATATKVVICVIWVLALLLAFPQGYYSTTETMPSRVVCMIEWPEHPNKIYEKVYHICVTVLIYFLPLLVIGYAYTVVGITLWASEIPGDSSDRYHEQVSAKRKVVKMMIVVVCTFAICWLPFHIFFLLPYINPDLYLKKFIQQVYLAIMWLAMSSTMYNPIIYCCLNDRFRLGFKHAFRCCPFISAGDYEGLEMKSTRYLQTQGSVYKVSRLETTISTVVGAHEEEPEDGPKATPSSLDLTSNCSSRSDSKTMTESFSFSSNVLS
substance,measurement,value
"antibody against NK1 receptor (Sigma-Aldrich, catalogue number S8305)",Percentage of inhibition of cell cultures; Lung carcinoma (non small cell lung carcinoma); cases with presence of ERK,95%
same,Percentage of inhibition of cell cultures; Lung carcinoma (non small cell lung carcinoma); cases without presence of AKT,25%
same,Percentage of inhibition of cell cultures; Lung carcinoma (non small cell lung carcinoma); cases without presence of ERK,29%
same,Percentage of inhibition of cell cultures; Lung carcinoma (non small cell type); Group 1 (expression in less than 20% of the cells),23%
same,Percentage of inhibition of cell cultures; Lung carcinoma (non small cell type); Group 2 (expression in 20-80% of the cells),55%
same,Percentage of inhibition of cell cultures; Lung carcinoma (non small cell type); Group 3 (expression in more than 80% of the cells),94%
same,Percentage of inhibition of cell cultures; Lung carcinoma (non small cell type); Intensity grade 1,24%
same,Percentage of inhibition of cell cultures; Lung carcinoma (non small cell type); Intensity grade 2,55%
same,Percentage of inhibition of cell cultures; Lung carcinoma (non small cell type); Intensity grade 3,97%
same,Percentage of inhibition of cell cultures; Lung carcinoma (small cell lung carcinoma); cases with presence of AKT,94%
same,Percentage of inhibition of cell cultures; Lung carcinoma (small cell lung carcinoma); cases with presence of ERK,94%
same,Percentage of inhibition of cell cultures; Lung carcinoma (small cell lung carcinoma); cases without presence of AKT,24%
same,Percentage of inhibition of cell cultures; Lung carcinoma (small cell lung carcinoma); cases without presence of ERK,27%
same,Percentage of inhibition of cell cultures; Lung carcinoma (small cell type); Group 1 (expression in less than 20% of the cells),24%
same,Percentage of inhibition of cell cultures; Lung carcinoma (small cell type); Group 2 (expression in 20-80% of the cells),56%
same,Percentage of inhibition of cell cultures; Lung carcinoma (small cell type); Group 3 (expression in more than 80% of the cells),95%
same,Percentage of inhibition of cell cultures; Lung carcinoma (small cell type); Intensity grade 1,25%
same,Percentage of inhibition of cell cultures; Lung carcinoma (small cell type); Intensity grade 2,54%
same,Percentage of inhibition of cell cultures; Lung carcinoma (small cell type); Intensity grade 3,94%
same,Percentage of inhibition of cell cultures; Malignant Fibrous Histiocytoma.; Group 1 (expression in less than 20% of the cells),22%
same,Percentage of inhibition of cell cultures; Malignant Fibrous Histiocytoma.; Group 2 (expression in 20-80% of the cells),56%
same,Percentage of inhibition of cell cultures; Malignant Fibrous Histiocytoma.; Group 3 (expression in more than 80% of the cells),96%
same,Percentage of inhibition of cell cultures; Malignant Fibrous Histiocytoma.; Intensity grade 1,25%
same,Percentage of inhibition of cell cultures; Malignant Fibrous Histiocytoma.; Intensity grade 2,55%
same,Percentage of inhibition of cell cultures; Malignant Fibrous Histiocytoma.; Intensity grade 3,95%
same,Percentage of inhibition of cell cultures; Melanoma (Nodular Melanoma); cases with presence of AKT,97%
same,Percentage of inhibition of cell cultures; Melanoma (Nodular Melanoma); cases with presence of ERK,90%
same,Percentage of inhibition of cell cultures; Melanoma (Nodular Melanoma); cases without presence of AKT,25%
same,Percentage of inhibition of cell cultures; Melanoma (Nodular Melanoma); cases without presence of ERK,28%
same,Percentage of inhibition of cell cultures; Melanoma; Group 1 (expression in less than 20% of the cells),24%
same,Percentage of inhibition of cell cultures; Melanoma; Group 2 (expression in 20-80% of the cells),55%
same,Percentage of inhibition of cell cultures; Melanoma; Group 3 (expression in more than 80% of the cells),96%
same,Percentage of inhibition of cell cultures; Melanoma; Intensity grade 1,23%
same,Percentage of inhibition of cell cultures; Melanoma; Intensity grade 2,56%
same,Percentage of inhibition of cell cultures; Melanoma; Intensity grade 3,97%
same,Percentage of inhibition of cell cultures; Myeloma; Group 1 (expression in less than 20% of the cells),23%
same,Percentage of inhibition of cell cultures; Myeloma; Group 2 (expression in 20-80% of the cells),56%
same,Percentage of inhibition of cell cultures; Myeloma; Group 3 (expression in more than 80% of the cells),96%
same,Percentage of inhibition of cell cultures; Myeloma; Intensity grade 1,25%
same,Percentage of inhibition of cell cultures; Myeloma; Intensity grade 2,56%
same,Percentage of inhibition of cell cultures; Myeloma; Intensity grade 3,95%
same,Percentage of inhibition of cell cultures; Neuroblastoma; Group 1 (expression in less than 20% of the cells),22%
same,Percentage of inhibition of cell cultures; Neuroblastoma; Group 2 (expression in 20-80% of the cells),54%
same,Percentage of inhibition of cell cultures; Neuroblastoma; Group 3 (expression in more than 80% of the cells),95%
same,Percentage of inhibition of cell cultures; Neuroblastoma; Intensity grade 1,25%
same,Percentage of inhibition of cell cultures; Neuroblastoma; Intensity grade 2,53%
same,Percentage of inhibition of cell cultures; Neuroblastoma; Intensity grade 3,93%
same,Percentage of inhibition of cell cultures; Non Hodgkin Lymphoma B (diffuse B cell lymphoma); cases with presence of AKT,95%
same,Percentage of inhibition of cell cultures; Non Hodgkin Lymphoma B (diffuse B cell lymphoma); cases with presence of ERK,98%
same,Percentage of inhibition of cell cultures; Non Hodgkin Lymphoma B (diffuse B cell lymphoma); cases without presence of AKT,24%
same,Percentage of inhibition of cell cultures; Non Hodgkin Lymphoma B (diffuse B cell lymphoma); cases without presence of ERK,29%
same,Percentage of inhibition of cell cultures; Non Hodgkin Lymphoma B; Group 1 (expression in less than 20% of the cells),23%
same,Percentage of inhibition of cell cultures; Non Hodgkin Lymphoma B; Group 2 (expression in 20-80% of the cells),54%
same,Percentage of inhibition of cell cultures; Non Hodgkin Lymphoma B; Group 3 (expression in more than 80% of the cells),96%
same,Percentage of inhibition of cell cultures; Non Hodgkin Lymphoma B; Intensity grade 1,26%
same,Percentage of inhibition of cell cultures; Non Hodgkin Lymphoma B; Intensity grade 2,55%
same,Percentage of inhibition of cell cultures; Non Hodgkin Lymphoma B; Intensity grade 3,96%
same,Percentage of inhibition of cell cultures; Non Hodgkin Lymphoma T (diffuse T cell lymphoma); cases with presence of AKT,94%
same,Percentage of inhibition of cell cultures; Non Hodgkin Lymphoma T (diffuse T cell lymphoma); cases with presence of ERK,97%
same,Percentage of inhibition of cell cultures; Non Hodgkin Lymphoma T (diffuse T cell lymphoma); cases without presence of AKT,25%
same,Percentage of inhibition of cell cultures; Non Hodgkin Lymphoma T (diffuse T cell lymphoma); cases without presence of ERK,27%
same,Percentage of inhibition of cell cultures; Non Hodgkin Lymphoma T; Group 1 (expression in less than 20% of the cells),23%
same,Percentage of inhibition of cell cultures; Non Hodgkin Lymphoma T; Group 2 (expression in 20-80% of the cells),55%
same,Percentage of inhibition of cell cultures; Non Hodgkin Lymphoma T; Group 3 (expression in more than 80% of the cells),96%
same,Percentage of inhibition of cell cultures; Non Hodgkin Lymphoma T; Intensity grade 1,27%
same,Percentage of inhibition of cell cultures; Non Hodgkin Lymphoma T; Intensity grade 2,56%
same,Percentage of inhibition of cell cultures; Non Hodgkin Lymphoma T; Intensity grade 3,95%
same,Percentage of inhibition of cell cultures; Ovarian carcinoma (Adenocarcinoma); cases with presence of AKT,95%
same,Percentage of inhibition of cell cultures; Ovarian carcinoma (Adenocarcinoma); cases with presence of ERK,96%
same,Percentage of inhibition of cell cultures; Ovarian carcinoma (Adenocarcinoma); cases without presence of AKT,24%
same,Percentage of inhibition of cell cultures; Ovarian carcinoma (Adenocarcinoma); cases without presence of ERK,24%
same,Percentage of inhibition of cell cultures; Ovarian carcinoma; Group 1 (expression in less than 20% of the cells),24%
same,Percentage of inhibition of cell cultures; Ovarian carcinoma; Group 2 (expression in 20-80% of the cells),55%
same,Percentage of inhibition of cell cultures; Ovarian carcinoma; Group 3 (expression in more than 80% of the cells),97%
same,Percentage of inhibition of cell cultures; Ovarian carcinoma; Intensity grade 1,23%
same,Percentage of inhibition of cell cultures; Ovarian carcinoma; Intensity grade 2,54%
same,Percentage of inhibition of cell cultures; Ovarian carcinoma; Intensity grade 3,96%
same,Percentage of inhibition of cell cultures; Pancreatic carcinoma (Adenocarcinoma); cases with presence of AKT,95%
same,Percentage of inhibition of cell cultures; Pancreatic carcinoma (Adenocarcinoma); cases with presence of ERK,94%
same,Percentage of inhibition of cell cultures; Pancreatic carcinoma (Adenocarcinoma); cases without presence of AKT,94%
same,Percentage of inhibition of cell cultures; Pancreatic carcinoma (Adenocarcinoma); cases without presence of ERK,94%
same,Percentage of inhibition of cell cultures; Pancreatic carcinoma; Group 1 (expression in less than 20% of the cells),23%
same,Percentage of inhibition of cell cultures; Pancreatic carcinoma; Group 2 (expression in 20-80% of the cells),53%
same,Percentage of inhibition of cell cultures; Pancreatic carcinoma; Group 3 (expression in more than 80% of the cells),96%
same,Percentage of inhibition of cell cultures; Pancreatic carcinoma; Intensity grade 1,22%
same,Percentage of inhibition of cell cultures; Pancreatic carcinoma; Intensity grade 2,54%
same,Percentage of inhibition of cell cultures; Pancreatic carcinoma; Intensity grade 3,93%
same,Percentage of inhibition of cell cultures; Prostate carcinoma; Group 1 (expression in less than 20% of the cells),23%
same,Percentage of inhibition of cell cultures; Prostate carcinoma; Group 2 (expression in 20-80% of the cells),57%
same,Percentage of inhibition of cell cultures; Prostate carcinoma; Group 3 (expression in more than 80% of the cells),96%
same,Percentage of inhibition of cell cultures; Prostate carcinoma; Intensity grade 1,24%
same,Percentage of inhibition of cell cultures; Prostate carcinoma; Intensity grade 2,56%
same,Percentage of inhibition of cell cultures; Prostate carcinoma; Intensity grade 3,93%
same,Percentage of inhibition of cell cultures; Prostate carcinoma; cases with presence of AKT,90%
same,Percentage of inhibition of cell cultures; Prostate carcinoma; cases with presence of ERK,90%
same,Percentage of inhibition of cell cultures; Prostate carcinoma; cases without presence of AKT,26%
same,Percentage of inhibition of cell cultures; Prostate carcinoma; cases without presence of ERK,27%
same,Percentage of inhibition of cell cultures; Renal cell carcinoma (clear cell renal cell carcinoma); cases with presence of AKT,94%
same,Percentage of inhibition of cell cultures; Renal cell carcinoma (clear cell renal cell carcinoma); cases with presence of ERK,95%
same,Percentage of inhibition of cell cultures; Renal cell carcinoma (clear cell renal cell carcinoma); cases without presence of AKT,34%
same,Percentage of inhibition of cell cultures; Renal cell carcinoma (clear cell renal cell carcinoma); cases without presence of ERK,32%
same,Percentage of inhibition of cell cultures; Renal cell carcinoma; Group 1 (expression in less than 20% of the cells),22%
same,Percentage of inhibition of cell cultures; Renal cell carcinoma; Group 2 (expression in 20-80% of the cells),52%
same,Percentage of inhibition of cell cultures; Renal cell carcinoma; Group 3 (expression in more than 80% of the cells),94%
same,Percentage of inhibition of cell cultures; Renal cell carcinoma; Intensity grade 1,23%
same,Percentage of inhibition of cell cultures; Renal cell carcinoma; Intensity grade 2,53%
same,Percentage of inhibition of cell cultures; Renal cell carcinoma; Intensity grade 3,97%
same,Percentage of inhibition of cell cultures; Thyroid carcinoma (follicular carcinoma); cases with presence of AKT,96%
same,Percentage of inhibition of cell cultures; Thyroid carcinoma (follicular carcinoma); cases with presence of ERK,96%
same,Percentage of inhibition of cell cultures; Thyroid carcinoma (follicular carcinoma); cases without presence of AKT,24%
same,Percentage of inhibition of cell cultures; Thyroid carcinoma (follicular carcinoma); cases without presence of ERK,26%
same,Percentage of inhibition of cell cultures; Thyroid carcinoma (folliculary type); Group 1 (expression in less than 20% of the cells),25%
same,Percentage of inhibition of cell cultures; Thyroid carcinoma (folliculary type); Group 2 (expression in 20-80% of the cells),54%
same,Percentage of inhibition of cell cultures; Thyroid carcinoma (folliculary type); Group 3 (expression in more than 80% of the cells),96%
same,Percentage of inhibition of cell cultures; Thyroid carcinoma (folliculary type); Intensity grade 1,26%
same,Percentage of inhibition of cell cultures; Thyroid carcinoma (folliculary type); Intensity grade 2,53%
same,Percentage of inhibition of cell cultures; Thyroid carcinoma (folliculary type); Intensity grade 3,95%
same,Percentage of inhibition of cell cultures; Thyroid carcinoma (papillary carcinoma); cases with presence of AKT,89%
same,Percentage of inhibition of cell cultures; Thyroid carcinoma (papillary carcinoma); cases with presence of ERK,89%
same,Percentage of inhibition of cell cultures; Thyroid carcinoma (papillary carcinoma); cases without presence of AKT,24%
same,Percentage of inhibition of cell cultures; Thyroid carcinoma (papillary carcinoma); cases without presence of ERK,27%
same,Percentage of inhibition of cell cultures; Thyroid carcinoma (papillary type); Group 1 (expression in less than 20% of the cells),22%
same,Percentage of inhibition of cell cultures; Thyroid carcinoma (papillary type); Group 2 (expression in 20-80% of the cells),53%
same,Percentage of inhibition of cell cultures; Thyroid carcinoma (papillary type); Group 3 (expression in more than 80% of the cells),94%
same,Percentage of inhibition of cell cultures; Thyroid carcinoma (papillary type); Intensity grade 1,24%
same,Percentage of inhibition of cell cultures; Thyroid carcinoma (papillary type); Intensity grade 2,56%
same,Percentage of inhibition of cell cultures; Thyroid carcinoma (papillary type); Intensity grade 3,94%
same,Percentage of inhibition of cell cultures; Undifferentiated Pleomorphic Sarcoma (malignant fibrous histiocytoma grade 3); cases with presence of AKT,90%
same,Percentage of inhibition of cell cultures; Undifferentiated Pleomorphic Sarcoma (malignant fibrous histiocytoma grade 3); cases with presence of ERK,90%
same,Percentage of inhibition of cell cultures; Undifferentiated Pleomorphic Sarcoma (malignant fibrous histiocytoma grade 3); cases without presence of AKT,25%
same,Percentage of inhibition of cell cultures; Undifferentiated Pleomorphic Sarcoma (malignant fibrous histiocytoma grade 3); cases without presence of ERK,27%
same,Percentage of inhibition of cell cultures; Urinary bladder carcinoma (transitional cell carcinoma); cases with presence of AKT,91%
same,Percentage of inhibition of cell cultures; Urinary bladder carcinoma (transitional cell carcinoma); cases with presence of ERK,88%
same,Percentage of inhibition of cell cultures; Urinary bladder carcinoma (transitional cell carcinoma); cases without presence of AKT,25%
same,Percentage of inhibition of cell cultures; Urinary bladder carcinoma (transitional cell carcinoma); cases without presence of ERK,28%
same,Percentage of inhibition of cell cultures; Urinary bladder carcinoma; Group 1 (expression in less than 20% of the cells),23%
same,Percentage of inhibition of cell cultures; Urinary bladder carcinoma; Group 2 (expression in 20-80% of the cells),54%
same,Percentage of inhibition of cell cultures; Urinary bladder carcinoma; Group 3 (expression in more than 80% of the cells),95%
same,Percentage of inhibition of cell cultures; Urinary bladder carcinoma; Intensity grade 1,25%
same,Percentage of inhibition of cell cultures; Urinary bladder carcinoma; Intensity grade 2,55%
same,Percentage of inhibition of cell cultures; Urinary bladder carcinoma; Intensity grade 3,96%

# From patent EP2966448B1, “METHOD FOR THE PREDICTION OR PROGNOSIS OF THE RESPONSE OF A HUMAN SUBJECT SUFFERING FROM CANCER TO TREATMENT WITH AN ANTAGONIST OF THE NK1 RECEPTOR” (priority 2013, dated 2014)
